Experimental data reported in patent publication US12497462 (IMMUNITYBIO, dated 2025).
Positions count from the first letter of the chain named. One block for each binder: values may come before it.

Legend:
[1] = target: T1, Human CD26-Fc fusion protein (human); test: competition ELISA on coated CD26-Fc (5 µg/mL): ADA is varied and the blocked molecule is biotinylated CD26Ab-01D at 5 nM, read with SAHRP/ABTS
T1 construct: also called CD26/beads

goat anti-human IgG = test: ELISA, goat anti-human IgG coated (control plate), goat anti-human kappa-HRP/ABTS
[2] = target: T2, Human CD26 on transfected CHO cells (human, UniProt P27487 1-766); test: flow cytometry on human CD26-transfected CHO cells, antibody 50 nM, goat anti-human IgG-PE
T2 construct: whole, on cells; also called CHO26; CD26 positive CHO cells

[3] = target: T1, Human CD26-Fc fusion protein; test: ELISA, CD26-Fc coated, purified IgG1 kappa antibody in 3-fold steps, goat anti-human kappa-HRP/ABTS
[4] = target: T1, Human CD26-Fc fusion protein; test: ELISA, CD26-Fc coated, purified IgG1 kappa antibody, goat anti-human kappa-HRP/ABTS

T1 sequence (chain, as listed by the source): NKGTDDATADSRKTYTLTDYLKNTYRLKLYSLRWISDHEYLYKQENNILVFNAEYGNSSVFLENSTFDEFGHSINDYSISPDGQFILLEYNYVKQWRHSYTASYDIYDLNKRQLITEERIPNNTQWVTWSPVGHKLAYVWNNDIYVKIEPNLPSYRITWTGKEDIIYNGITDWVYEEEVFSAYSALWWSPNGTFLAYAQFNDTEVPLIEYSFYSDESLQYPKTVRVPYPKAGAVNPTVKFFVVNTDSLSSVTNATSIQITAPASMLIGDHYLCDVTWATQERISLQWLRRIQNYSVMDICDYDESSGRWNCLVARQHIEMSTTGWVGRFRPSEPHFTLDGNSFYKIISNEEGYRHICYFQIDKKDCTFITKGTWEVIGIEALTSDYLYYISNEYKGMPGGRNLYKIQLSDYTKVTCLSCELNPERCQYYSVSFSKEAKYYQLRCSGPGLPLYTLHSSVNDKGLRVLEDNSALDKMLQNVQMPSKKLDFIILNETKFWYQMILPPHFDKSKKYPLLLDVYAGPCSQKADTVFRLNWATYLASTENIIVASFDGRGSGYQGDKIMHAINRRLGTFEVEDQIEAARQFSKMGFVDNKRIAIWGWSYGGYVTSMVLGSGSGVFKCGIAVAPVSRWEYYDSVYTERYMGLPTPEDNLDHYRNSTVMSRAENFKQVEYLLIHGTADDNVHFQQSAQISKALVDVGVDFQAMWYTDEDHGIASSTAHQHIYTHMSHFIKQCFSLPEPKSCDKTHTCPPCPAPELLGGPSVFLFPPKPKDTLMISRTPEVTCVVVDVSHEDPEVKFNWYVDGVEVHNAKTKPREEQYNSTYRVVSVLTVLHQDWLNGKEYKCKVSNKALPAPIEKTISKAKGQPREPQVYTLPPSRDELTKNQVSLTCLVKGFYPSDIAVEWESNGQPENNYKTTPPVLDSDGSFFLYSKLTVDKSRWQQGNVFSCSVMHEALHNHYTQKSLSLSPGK
T2 sequence (P27487 whole entry): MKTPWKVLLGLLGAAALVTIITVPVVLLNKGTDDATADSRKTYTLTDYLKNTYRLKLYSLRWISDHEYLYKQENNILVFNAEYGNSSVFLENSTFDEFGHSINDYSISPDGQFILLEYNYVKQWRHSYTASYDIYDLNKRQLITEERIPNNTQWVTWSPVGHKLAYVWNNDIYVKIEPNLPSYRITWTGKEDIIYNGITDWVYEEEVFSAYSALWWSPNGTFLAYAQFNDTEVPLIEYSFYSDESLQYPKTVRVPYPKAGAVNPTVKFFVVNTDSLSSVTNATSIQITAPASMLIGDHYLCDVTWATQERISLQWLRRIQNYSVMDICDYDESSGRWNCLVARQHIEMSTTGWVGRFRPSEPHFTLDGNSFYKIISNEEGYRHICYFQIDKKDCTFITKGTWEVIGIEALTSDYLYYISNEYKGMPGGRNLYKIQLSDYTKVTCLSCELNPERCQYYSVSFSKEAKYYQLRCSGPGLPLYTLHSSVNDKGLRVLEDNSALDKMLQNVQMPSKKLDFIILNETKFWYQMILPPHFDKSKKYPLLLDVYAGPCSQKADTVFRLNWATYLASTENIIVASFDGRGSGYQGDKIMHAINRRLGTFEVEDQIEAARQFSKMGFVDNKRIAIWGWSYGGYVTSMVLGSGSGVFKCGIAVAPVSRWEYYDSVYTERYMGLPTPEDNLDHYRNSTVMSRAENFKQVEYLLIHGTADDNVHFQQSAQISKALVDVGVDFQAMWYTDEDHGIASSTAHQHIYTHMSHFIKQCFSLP

IC50 (read off the curve) [1]: ~0.01 nM
B1: Human adenosine deaminase (ADA) (enzyme, UniProt P00813 1-363, looked up)
chain: MAQTPAFDKPKVELHVHLDGSIKPETILYYGRRRGIALPANTAEGLLNVIGMDKPLTLPDFLAKFDYYMPAIAGCREAIKRIAYEFVEMKAKEGVVYVEVRYSPHLLANSKVEPIPWNQAEGDLTPDEVVALVGQGLQEGERDFGVKARSILCCMRHQPNWSPKVVELCKKYQQQTVVAIDLAGDETIPGSSLLPGHVQAYQEAVKSGIHRTVHAGEVGSAEVVKEAVDILKTERLGHGYHTLEDQALYNRLRQENMHFEICPWSSYLTGAWKPDTEHAVIRLKNDQANYSLNTDDPLIFKSTLDTDYQMTKRDMGFTEEEFKRLNINAAKSSFLPEDEKRELLDLLYKAYGMPPSASAGQNL
notes: Bought reagent; also called Human ADA (R&D systems)

EC50 (read off the curve) (goat anti-human IgG): ~0.4 nM
MFI [2]: 4360
EC50 (read off the curve) [3]: ~1 nM
B2: CD26Ab-04A anti-CD26 IgG1 kappa monoclonal antibody (antibody, V domains shown)
VH: EVQLVESGGGLVQPGGSLRLSCAASGFAINNYSIHWVRQAPGKGLEWVASIWPYGGFTSYADSVKGRFTISADTSKNTAYLQMNSLRAEDTAVYYCARFFSSYGDMDYWGQGTLVTVSS
VL: DIQMTQSPSSLSASVGDRVTITCRASQDVSGGVAWYQQKPGKAPKLLIYGTSGLYSGVPSRFSGSGSGTDFTLTISSLQPEDFATYYCQQGGDWPITFGQGTKVEIKR
notes: Used biotinylated in some assays; also called CD26-04A

MFI [2]: 1700
binding result [3]: binds
B3: CD26Ab-01D anti-CD26 IgG1 kappa monoclonal antibody (antibody, V domains shown)
VH: EVQLVESGGGLVQPGGSLRLSCAASGFTINDSYIHWVRQAPGKGLEWVAWIWPYGGFTYYADSVKGRFTISADTSKNTAYLQMNSLRAEDTAVYYCARFLGSSSIMDYWGQGTLVTVSS
VL: DIQMTQSPSSLSASVGDRVTITCRASQDVNSNVAWYQQKPGKAPKLLIFGSGGLYSGVPSRFSGSGSGTDFTLTISSLQPEDFATYYCQQYSSYPLTFGQGTKVETKR

MFI [2]: 105
binding result [4]: no binding (tested: 500000 pM)
B4: CD26Ab-10B anti-CD26 IgG1 kappa monoclonal antibody (antibody, V domains shown)
VH: B2 VH with A28T, N30S, N31D, F100H, Y103S
VL: B3 VL with N30W, S31G, N32Y, G50A, G53A, S92F, S93N, Y94W, L96I, T106I
notes: Very low production; not biotinylated
